Assay results: patent US20090035321A1, “Intercellular adhesion molecules and their binding ligands” (Boehringer Ingelheim Pharmaceuticals, Inc., published 2009)

How the values were obtained:
Assay in all cases: flow, COS cells
[1] = molecular target: ICAM-1 A115N/SV (printed A155N/SV at paragraph 410) (human) (UniProt P05362)
ICAM-1 N240DS/KNA = ICAM-1 N240DS/KNA (human, UniProt P05362)
ICAM-1 E254DE/KEK = ICAM-1 E254DE/KEK (human, UniProt P05362)
ICAM-1 Q1/K = ICAM-1 Q1/K (human, UniProt P05362)
ICAM-1 S3/T = ICAM-1 S3/T (human, UniProt P05362)
ICAM-1 V4/G = ICAM-1 V4/G (human, UniProt P05362)
ICAM-1 K8/E = ICAM-1 K8/E (human, UniProt P05362)
ICAM-1 R13G/EA = ICAM-1 R13G/EA (human, UniProt P05362)
ICAM-1 R13/E = ICAM-1 R13/E (human, UniProt P05362)
ICAM-1 R13/K = ICAM-1 R13/K (human, UniProt P05362)
ICAM-1 R13/Q = ICAM-1 R13/Q (human, UniProt P05362)
ICAM-1 G15/SA = ICAM-1 G15/SA (human, UniProt P05362)
ICAM-1 S24/A = ICAM-1 S24/A (human, UniProt P05362)
ICAM-1 K40/A = ICAM-1 K40/A (human, UniProt P05362)
ICAM-1 N48/H = ICAM-1 N48/H (human, UniProt P05362)
ICAM-1 R49KV/EKL = ICAM-1 R49KV/EKL (human, UniProt P05362)
ICAM-1 K50V/EL = ICAM-1 K50V/EL (human, UniProt P05362)
ICAM-1 Y52/F = ICAM-1 Y52/F (human, UniProt P05362)
ICAM-1 Y52/FA = ICAM-1 Y52/FA (human, UniProt P05362)
ICAM-1 Q58EDS/AKDI = ICAM-1 Q58EDS/AKDI (human, UniProt P05362)
ICAM-1 Q58/H = ICAM-1 Q58/H (human, UniProt P05362)
ICAM-1 E59/Q = ICAM-1 E59/Q (human, UniProt P05362)
ICAM-1 D60S/KL = ICAM-1 D60S/KL (human, UniProt P05362)
ICAM-1 D60/K = ICAM-1 D60/K (human, UniProt P05362)
ICAM-1 D60/Q = ICAM-1 D60/Q (human, UniProt P05362)
ICAM-1 Q62PM/API = ICAM-1 Q62PM/API (human, UniProt P05362)
ICAM-1 Y66/T = ICAM-1 Y66/T (human, UniProt P05362)
ICAM-1 N68/K = ICAM-1 N68/K (human, UniProt P05362)
ICAM-1 D71GQS/NGEL = ICAM-1 D71GQS/NGEL (human, UniProt P05362)
ICAM-1 D71/E = ICAM-1 D71/E (human, UniProt P05362)
ICAM-1 D71/N = ICAM-1 D71/N (human, UniProt P05362)
ICAM-1 Q73/T = ICAM-1 Q73/T (human, UniProt P05362)
ICAM-1 T75/A = ICAM-1 T75/A (human, UniProt P05362)
ICAM-1 K77T/ES = ICAM-1 K77T/ES (human, UniProt P05362)
ICAM-1 Y83/S = ICAM-1 Y83/S (human, UniProt P05362)
ICAM-1 E87/K = ICAM-1 E87/K (human, UniProt P05362)
ICAM-1 R88V/EA = ICAM-1 R88V/EA (human, UniProt P05362)
ICAM-1 E90/Q = ICAM-1 E90/Q (human, UniProt P05362)
ICAM-1 E90/K = ICAM-1 E90/K (human, UniProt P05362)
ICAM-1 N103/K = ICAM-1 N103/K (human, UniProt P05362)
ICAM-1 E111GGA/KAGS = ICAM-1 E111GGA/KAGS (human, UniProt P05362)
ICAM-1 N118/Q = ICAM-1 N118/Q (human, UniProt P05362)
ICAM-1 R125/E = ICAM-1 R125/E (human, UniProt P05362)
ICAM-1 K128/R = ICAM-1 K128/R (human, UniProt P05362)
ICAM-1 V136GE/GVK = ICAM-1 V136GE/GVK (human, UniProt P05362)
ICAM-1 R149RD/EEG = ICAM-1 R149RD/EEG (human, UniProt P05362)
ICAM-1 H152HGA/EEGS = ICAM-1 H152HGA/EEGS (human, UniProt P05362)
ICAM-1 N175TSA/QTLG = ICAM-1 N175TSA/QTLG (human, UniProt P05362)
ICAM-1 A178/G = ICAM-1 A178/G (human, UniProt P05362)
ICAM-1 A189T/SI = ICAM-1 A189T/SI (human, UniProt P05362)
ICAM-1 D213GL/HGV = ICAM-1 D213GL/HGV (human, UniProt P05362)

SLFI % WT [1]: 60 % WT
SLFI % WT (ICAM-1 N240DS/KNA): 142 % WT
SLFI % WT (ICAM-1 E254DE/KEK): 180 % WT
SLFI % WT (ICAM-1 Q1/K): 168 % WT
SLFI % WT (ICAM-1 S3/T): 224 % WT
SLFI % WT (ICAM-1 V4/G): 111 % WT
SLFI % WT (ICAM-1 K8/E): 111 % WT
SLFI % WT (ICAM-1 R13G/EA): 132 % WT
SLFI % WT (ICAM-1 R13/E): 202 % WT
SLFI % WT (ICAM-1 R13/K): 189 % WT
SLFI % WT (ICAM-1 R13/Q): 161 % WT
SLFI % WT (ICAM-1 G15/SA): 172 % WT
SLFI % WT (ICAM-1 S24/A): 158 % WT
SLFI % WT (ICAM-1 K40/A): 146 % WT
SLFI % WT (ICAM-1 N48/H): 164 % WT
SLFI % WT (ICAM-1 R49KV/EKL): 233 % WT
SLFI % WT (ICAM-1 K50V/EL): 103 % WT
SLFI % WT (ICAM-1 Y52/F): 152 % WT
SLFI % WT (ICAM-1 Y52/FA): 100 % WT
SLFI % WT (ICAM-1 Q58EDS/AKDI): 98 % WT
SLFI % WT (ICAM-1 Q58/H): 135 % WT
SLFI % WT (ICAM-1 E59/Q): 195 % WT
SLFI % WT (ICAM-1 D60S/KL): 105 % WT
SLFI % WT (ICAM-1 D60/K): 89 % WT
SLFI % WT (ICAM-1 D60/Q): 80 % WT
SLFI % WT (ICAM-1 Q62PM/API): 200 % WT
SLFI % WT (ICAM-1 Y66/T): 144 % WT
SLFI % WT (ICAM-1 N68/K): 153 % WT
SLFI % WT (ICAM-1 D71GQS/NGEL): 161 % WT
SLFI % WT (ICAM-1 D71/E): 124 % WT
SLFI % WT (ICAM-1 D71/N): 109 % WT
SLFI % WT (ICAM-1 Q73/T): 218 % WT
SLFI % WT (ICAM-1 T75/A): 153 % WT
SLFI % WT (ICAM-1 K77T/ES): 151 % WT
SLFI % WT (ICAM-1 Y83/S): 125 % WT
SLFI % WT (ICAM-1 E87/K): 94 % WT
SLFI % WT (ICAM-1 R88V/EA): 113 % WT
SLFI % WT (ICAM-1 E90/Q): 152 % WT
SLFI % WT (ICAM-1 E90/K): 29 % WT
SLFI % WT (ICAM-1 N103/K): 91 % WT
SLFI % WT (ICAM-1 E111GGA/KAGS): 122 % WT
SLFI % WT (ICAM-1 N118/Q): 139 % WT
SLFI % WT (ICAM-1 R125/E): 145 % WT
SLFI % WT (ICAM-1 K128/R): 190 % WT
SLFI % WT (ICAM-1 V136GE/GVK): 171 % WT
SLFI % WT (ICAM-1 R149RD/EEG): 159 % WT
SLFI % WT (ICAM-1 H152HGA/EEGS): 94 % WT
SLFI % WT (ICAM-1 A178/G): 304 % WT
SLFI % WT (ICAM-1 A189T/SI): 138 % WT
SLFI % WT (ICAM-1 D213GL/HGV): 128 % WT
Substance: monoclonal antibody CL203
SLFI % WT (ICAM-1 N175TSA/QTLG): 75 % WT
